Assay results reported in patent US20180125973A1 (AstraZeneca / MedImmune, published 2018).

Columns and labels:
[1] = biological target: T1, Human CD73 on cells (human, UniProt P21589 27-549); assay: cell-based or functional assay
T1 sequence: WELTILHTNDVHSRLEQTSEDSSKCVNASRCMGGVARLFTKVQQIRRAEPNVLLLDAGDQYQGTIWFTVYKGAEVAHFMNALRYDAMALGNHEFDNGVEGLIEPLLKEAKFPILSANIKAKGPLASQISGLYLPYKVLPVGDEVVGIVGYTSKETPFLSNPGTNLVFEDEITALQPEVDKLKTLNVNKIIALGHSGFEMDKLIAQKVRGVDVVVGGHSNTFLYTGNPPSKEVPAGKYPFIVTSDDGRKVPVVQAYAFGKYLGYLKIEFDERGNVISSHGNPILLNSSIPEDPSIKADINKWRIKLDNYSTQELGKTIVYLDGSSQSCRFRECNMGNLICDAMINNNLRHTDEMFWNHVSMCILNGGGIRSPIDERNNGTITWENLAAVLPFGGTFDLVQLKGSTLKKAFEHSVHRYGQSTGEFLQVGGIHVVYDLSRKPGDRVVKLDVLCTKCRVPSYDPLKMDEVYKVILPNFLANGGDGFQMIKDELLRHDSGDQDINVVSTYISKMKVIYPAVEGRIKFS

[2] = biological target: T2, Murine CD73 on cells (murine, UniProt Q61503 29-551); assay: cell-based or functional assay
T2 sequence (looked up): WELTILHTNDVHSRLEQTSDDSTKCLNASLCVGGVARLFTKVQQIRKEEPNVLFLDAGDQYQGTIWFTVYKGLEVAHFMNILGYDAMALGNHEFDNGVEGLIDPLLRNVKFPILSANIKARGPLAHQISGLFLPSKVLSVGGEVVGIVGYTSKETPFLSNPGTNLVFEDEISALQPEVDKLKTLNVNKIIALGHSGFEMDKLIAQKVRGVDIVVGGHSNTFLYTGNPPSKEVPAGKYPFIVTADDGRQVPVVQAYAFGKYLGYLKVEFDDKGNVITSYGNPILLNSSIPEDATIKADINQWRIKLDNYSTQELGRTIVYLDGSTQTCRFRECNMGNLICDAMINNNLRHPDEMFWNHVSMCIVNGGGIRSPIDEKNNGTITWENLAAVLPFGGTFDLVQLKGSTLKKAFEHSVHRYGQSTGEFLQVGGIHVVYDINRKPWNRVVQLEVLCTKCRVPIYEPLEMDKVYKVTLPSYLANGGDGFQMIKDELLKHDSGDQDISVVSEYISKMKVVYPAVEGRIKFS

B1: MEDI9447 (antibody, human IgG1, lambda, V domains shown)
VH: EVQLLESGGGLVQPGGSLRLSCAASGFTFSSYAYSWVRQAPGKGLEWVSAISGSGGRTYYADSVKGRFTISRDNSKNTLYLQMNSLRAEDTAVYYCARLGYGRVDEWGRGTLVTVSS
VL: QSVLTQPPSASGTPGQRVTISCSGSLSNIGRNPVNWYQQLPGTAPKLLIYLDNLRLSGVPDRFSGSKSGTSASLAISGLQSEDEADYYCATWDDSHPGWTFGGGTKLTVLG
Q: B1 was tested. Which “Antibody-mediated internalization of cytotoxic FabZAP reagent into MDA-MB-231 cells, EC50” value [1] did it give?
A: 0.0035 nM

Q: And the “Antibody-mediated internalization of cytotoxic FabZAP reagent into 4T1 cells, EC50” value [2]?
A: 0.0185 nM
